Measured values as given in patent publication US20150147274A1 (CANCER RESEARCH TECHNOLOGY, published 2015).
Changes are numbered by the printed parent chain.

Tests used:
[1] = biological target: human MET (c-Met) on cells (SKOV-3, BxPC3) (human) (UniProt P08581); test: cell-based or functional assay
[2] = biological target: MET928 (cMET protein derived from construct 25-928) (human) (UniProt P08581); test: Biacore SPR, MET928-coated surface, 1:1 kinetic analysis
[3] = biological target: T1, MET928 (cMET protein derived from construct 25-928) (human, UniProt P08581 25-928); test: SPR (Biacore), CM5 chip coated with MET928
T1 construct: MET ectodomain, residues 1-24 are the leader; produced in Lec 8 cells; background text says the ectodomain is furin-cleaved into alpha (25-307) and beta chains; biotinylated form used in selections; also called MET928 extracellular domain; Met extracellular domain

[4] = biological target: T2, MET928.6H (hexahistine tagged MET928) (human, UniProt P08581 25-928); test: plate binding assay: 100 nM MET928.6H added to NK1-coated microplate, bound MET detected with anti-5xHis and DELFIA Eu-N1 anti-mouse IgG (time-resolved fluorescence) [right panel]
T2 construct: also called MET ectodomain; not shown: hexahistidine tag
Method: FAb at 5-500 nM (FIG. 8) was mixed with 100 nM MET928.6H (hexahistine tagged MET928) and the mixture incubated at room temperature for one hour, prior to addition of the MET928.6H/FAb mixture to microplates coated with HGF/SF or the fragment NK1 and a further one-hour incubation. Bound MET928.6H was then detected with anti-5xHis (Qiagen) followed by DELFIA® Eu-N1 rabbit anti-mouse-IgG, exposure to DELFIA® enhancement solution and quantitation by time-resolved fluorescence on a Fusion instrument (Perkin Elmer).

[5] = biological target: T1, MET928 (cMET protein derived from …); test: Biacore SPR, MET-928 on chip, Fab format
Method: (§1) The binding characteristics of 7A2 and its derivatives were measured using a GE Healthcare Biacore biosensor.

[6] = biological target: T3, human MET (c-Met) on cells (SKOV-3, BxPC3) (human, UniProt P08581 25-1390); test: cell-based or functional assay
[7] = biological target: T4, MET567 (MET extracellular domain aa 25-567) (human, UniProt P08581 25-567); test: analytical size exclusion chromatography (Superdex 200 10/300) [Cont.]
T4 construct: beta-propeller + cystine-rich domain
Method: Epitope location was analysed by analytical size exclusion chromatography. […] The mixtures were then centrifuged to remove any debris and analysed on a Superdex 200 10/300 size exclusion column (GE Life Sciences).

[8] = biological target: T1, MET928 (cMET protein derived from …); test: Biacore SPR
[9] = biological target: T1, MET928 (cMET protein derived from …); test: Biacore SPR, MET928-coated surface, 1:1 kinetic analysis
Text: In FIG. 15, “hinged” His-tagged, IMAC-purified Fabs were used.

[10] = biological target: T1, MET928 (cMET protein derived from …); test: Biacore SPR, MET-928 on chip, scFv format
Method: as §1

[11] = biological target: T3, human MET (c-Met) on cells (SKOV-3, …); test: cell-based or functional assay; remark: listed apart in the source
[12] = biological target: T1, MET928 (cMET protein derived from …); test: Biacore SPR, MET928-coated surface
Text: Since scFv can multimerise, possibly complicating analysis, we also analysed the biological activity of monomeric 7A2 scFv. 8×His-tagged 7A2 scFv (Table 14) was expressed in P. pastoris induced with Methanol over 3 days. Conditioned media was concentrated using a Sartorius Slice Disposable (10 kD nominal molecular weight cut-off) and the scFv purified on a HisTrap column (GE Life Sciences). Monomeric 7A2 scFv (FIG. 11) was isolated by size exclusion using a Superdex 200 16/60 prep grade column (GE Life Sciences).

T3 sequence (P08581 25-1390): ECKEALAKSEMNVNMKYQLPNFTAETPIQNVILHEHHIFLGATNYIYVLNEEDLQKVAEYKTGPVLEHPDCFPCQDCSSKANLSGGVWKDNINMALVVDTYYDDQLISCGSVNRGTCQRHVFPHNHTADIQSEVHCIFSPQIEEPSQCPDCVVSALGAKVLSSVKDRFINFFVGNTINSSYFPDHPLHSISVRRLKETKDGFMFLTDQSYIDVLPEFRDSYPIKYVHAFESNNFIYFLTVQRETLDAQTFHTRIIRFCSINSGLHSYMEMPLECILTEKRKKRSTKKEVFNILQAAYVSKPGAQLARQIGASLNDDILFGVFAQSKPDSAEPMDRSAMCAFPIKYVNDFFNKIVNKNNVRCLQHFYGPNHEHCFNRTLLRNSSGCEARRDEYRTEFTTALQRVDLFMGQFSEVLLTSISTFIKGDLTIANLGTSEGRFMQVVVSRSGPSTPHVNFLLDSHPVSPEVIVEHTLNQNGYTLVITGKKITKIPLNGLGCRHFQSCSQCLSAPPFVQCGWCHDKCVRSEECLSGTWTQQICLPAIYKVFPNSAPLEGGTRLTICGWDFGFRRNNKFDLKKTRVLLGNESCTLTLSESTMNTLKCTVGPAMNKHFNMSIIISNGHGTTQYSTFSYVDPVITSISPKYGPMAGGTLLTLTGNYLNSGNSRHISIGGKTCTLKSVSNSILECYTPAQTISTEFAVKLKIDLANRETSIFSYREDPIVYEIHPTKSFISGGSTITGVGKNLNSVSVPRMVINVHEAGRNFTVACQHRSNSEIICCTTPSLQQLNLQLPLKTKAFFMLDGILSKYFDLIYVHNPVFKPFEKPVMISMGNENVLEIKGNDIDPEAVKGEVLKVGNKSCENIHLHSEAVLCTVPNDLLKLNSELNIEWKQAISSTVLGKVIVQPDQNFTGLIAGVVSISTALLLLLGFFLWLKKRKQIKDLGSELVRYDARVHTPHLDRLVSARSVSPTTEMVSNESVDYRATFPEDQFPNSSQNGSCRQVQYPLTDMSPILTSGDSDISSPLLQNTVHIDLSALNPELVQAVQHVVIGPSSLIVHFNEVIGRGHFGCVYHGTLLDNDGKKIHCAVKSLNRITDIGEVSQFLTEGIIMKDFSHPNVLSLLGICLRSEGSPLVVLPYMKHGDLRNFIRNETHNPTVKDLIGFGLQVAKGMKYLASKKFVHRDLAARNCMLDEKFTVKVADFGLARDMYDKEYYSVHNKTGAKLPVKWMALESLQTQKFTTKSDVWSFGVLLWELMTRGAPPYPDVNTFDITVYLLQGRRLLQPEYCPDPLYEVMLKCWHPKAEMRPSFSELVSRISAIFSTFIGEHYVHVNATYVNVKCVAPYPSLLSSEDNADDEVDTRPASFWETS
Sequence of human MET (c-Met) on cells (SKOV-3, BxPC3) (human) (P08581 25-1390): as above
T1 sequence (P08581 25-928): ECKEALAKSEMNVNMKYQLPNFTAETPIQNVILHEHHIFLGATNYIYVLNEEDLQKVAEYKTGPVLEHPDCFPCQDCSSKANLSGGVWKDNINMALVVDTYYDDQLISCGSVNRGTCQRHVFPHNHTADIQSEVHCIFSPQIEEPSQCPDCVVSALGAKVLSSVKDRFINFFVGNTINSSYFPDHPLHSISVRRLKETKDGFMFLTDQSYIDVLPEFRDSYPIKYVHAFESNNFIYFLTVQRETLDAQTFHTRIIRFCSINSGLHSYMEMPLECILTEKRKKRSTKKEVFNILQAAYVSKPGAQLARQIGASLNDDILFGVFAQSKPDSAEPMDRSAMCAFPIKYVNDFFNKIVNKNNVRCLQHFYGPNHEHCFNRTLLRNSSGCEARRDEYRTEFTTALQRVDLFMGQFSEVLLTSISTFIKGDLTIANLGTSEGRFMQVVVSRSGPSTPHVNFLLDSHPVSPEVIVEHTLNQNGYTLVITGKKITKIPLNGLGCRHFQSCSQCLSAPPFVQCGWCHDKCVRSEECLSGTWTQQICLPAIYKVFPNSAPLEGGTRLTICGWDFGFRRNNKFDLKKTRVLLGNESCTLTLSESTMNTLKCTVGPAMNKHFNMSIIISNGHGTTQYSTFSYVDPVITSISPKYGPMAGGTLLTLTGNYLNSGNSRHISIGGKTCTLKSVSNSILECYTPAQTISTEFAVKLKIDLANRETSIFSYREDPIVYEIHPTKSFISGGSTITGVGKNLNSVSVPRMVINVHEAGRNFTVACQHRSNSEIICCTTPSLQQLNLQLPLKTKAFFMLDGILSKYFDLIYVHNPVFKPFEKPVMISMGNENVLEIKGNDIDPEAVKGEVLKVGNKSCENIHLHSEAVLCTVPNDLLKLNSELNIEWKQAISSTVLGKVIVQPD
Sequence of MET928 (cMET protein derived from construct 25-928) (human) (P08581 25-928): as above
T4 sequence (P08581 25-567): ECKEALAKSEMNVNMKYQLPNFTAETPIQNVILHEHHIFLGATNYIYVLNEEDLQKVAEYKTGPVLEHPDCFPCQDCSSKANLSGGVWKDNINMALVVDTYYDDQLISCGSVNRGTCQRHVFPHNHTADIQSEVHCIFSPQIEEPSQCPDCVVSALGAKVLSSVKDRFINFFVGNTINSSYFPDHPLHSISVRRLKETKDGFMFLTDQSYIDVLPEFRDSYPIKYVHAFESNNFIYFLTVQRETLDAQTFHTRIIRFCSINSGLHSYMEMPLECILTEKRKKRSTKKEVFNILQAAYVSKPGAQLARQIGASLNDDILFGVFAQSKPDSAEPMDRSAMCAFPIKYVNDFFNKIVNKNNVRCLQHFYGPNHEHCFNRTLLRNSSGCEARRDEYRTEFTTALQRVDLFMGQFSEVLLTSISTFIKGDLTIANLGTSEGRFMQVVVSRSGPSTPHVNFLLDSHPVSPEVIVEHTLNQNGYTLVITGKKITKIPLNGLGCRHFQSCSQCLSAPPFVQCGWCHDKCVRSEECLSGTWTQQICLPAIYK
T2 sequence (P08581 25-928): as the sequence (P08581 25-928) above

Q: How did the IC50 (nM), inhibition of HGF/SF-induced migration of SKOV-3 cells, Assay 1 [1] turn out when 5D5 scFv was run?
A: Its IC50 (nM), inhibition of HGF/SF-induced migration of SKOV-3 cells, Assay 1 is 116 nM.

Q: And the IC50 (nM), inhibition of HGF/SF-induced migration of SKOV-3 cells, Assay 2 [1]?
A: The IC50 (nM), inhibition of HGF/SF-induced migration of SKOV-3 cells, Assay 2 was 83.6 nM.

Q: What about the IC50 (nM), inhibition of HGF/SF-induced migration of SKOV-3 cells, Mean [1] of the same molecule?
A: Its IC50 (nM), inhibition of HGF/SF-induced migration of SKOV-3 cells, Mean is 99.6 nM.

Q: 5D5 Fab (His-tagged) was tested. Which Kd [2] did it give?
A: The Kd was 6.9 nM.

Q: And the koff [2]?
A: The koff was 0.00081 s⁻¹.

Q: What about the kon [2] of the same molecule?
A: Its kon is 120000 M⁻¹ s⁻¹.

Q: What about the Fab concentration (nanomolar) giving 50% inhibition of HGF/SF-induced SKOV-3 migration, MEAN [1] of the same molecule?
A: The Fab concentration (nanomolar) giving 50% inhibition of HGF/SF-induced SKOV-3 migration, MEAN was 101 nM.

Q: And the Fab concentration (nanomolar) giving 50% inhibition of HGF/SF-induced SKOV-3 migration, MEDIAN [1]?
A: The Fab concentration (nanomolar) giving 50% inhibition of HGF/SF-induced SKOV-3 migration, MEDIAN was 91 nM.

B1: NK1 fragment of HGF/SF (produced in Pichia pastoris) (ligand)
chain: EAEAYVEGQRKRRNTIHEFKKSAKTTLIKIDPALKIKTKKVNTADQCADRCTRNKGLPFTCKAFVFDKARKQCLWFPFNSMSSGVKKEFGHEFDLYENKDYIRNCIIGKGRSYKGTVSITKSGIKCQPWSSMIPHEHSFLPSSYRGKDLQENYCRNPRGEEGGPWCFTSNPEVRYEVCDIPQCSEVE
notes: The first two (EA) or four (EAEA) amino acids may be removed during processing; also called NK1.B1; NK1.B2
Q: What does the source list for B1?
A: binding result [3]: binds; binding result [4]: binds

B2: 7A2 Fab (His- and FLAG-tagged, hinged format) (Fab, V domains shown)
VH: QMQLVQSGAEVKKPGAPVKVSCKVSGYTFTDYYMHWVQQAPGKGLEWMGLVDPEDGETIYAEKFQGRVTITADTSTDTAYMELSSLRSEDTAVYYCATDATTPYYGMDVWGQGTLVTVSS
VL: DIQMTQSPSSLSASVGDRVTITCQASQDISNYLNWYQQKPGRAPKVLIYDASNLETGVPSRFSGSGSGTEFTLTISNLRPDDFATYYCQQGDSFPLTFGGGTKVEIK
notes: Fab from pBIOCAM7-3F in HEK293 cells, hinged format (Leu-Glu after VH), hexahistidine and tri-FLAG tags at the C-terminus of the heavy chain
Q: Which Kd [5] does the source give for B2 here?
A: The Kd was 77.3 nM.

Q: And the koff [5]?
A: Its koff is 0.0882 s⁻¹.

Q: What about the kon [5] of the same molecule?
A: Its kon is 1.14e+06 M⁻¹ s⁻¹.

Q: What about the “IC50, inhibition of HGF/SF-induced migration of SKOV-3 cells, Assay 1” value (“IC50, inhibition … Assay 1” below) [6] of the same molecule?
A: The value was 387 nM.

Q: What about the “IC50, inhibition of HGF/SF-induced migration of SKOV-3 cells, Assay 2” value (“IC50, inhibition … Assay 2” below) [6] of the same molecule?
A: The value was 493 nM.

Q: And the “IC50, inhibition of HGF/SF-induced migration of SKOV-3 cells, Assay 3” value (“IC50, inhibition … Assay 3” below) [6]?
A: Its value is 278 nM.

Q: What about the “Mean IC50, inhibition of HGF/SF-induced migration of SKOV-3 cells” value (“Mean IC50, inhibition” below) [6] of the same molecule?
A: Its value is 386 nM.

B3: 7A2 Fab (tagless, hinged) (Fab, V domains shown)
VH: B2 VH
VL: DIQMTQSPSSLSASVGDRVTITCQASQDISNYLNWYQQKPGRAPKVLIYDASNLETGVPSRFSGSGSGTEFTLTISNLRPDDFATYYCQQGDSFPLTFGGGTKVEIKR
notes: Purified on KappaSelect; also called Tagless 7A2
Q: Does B3 bind [7]?
A: Result: no binding (tested: 6 µM Fab with 4 µM MET567)

Q: What about the Kd [8] of the same molecule?
A: The Kd was 181 nM.

Q: And the koff [8]?
A: Its koff is 0.108 s⁻¹.

Q: What about the kon [8] of the same molecule?
A: The kon was 597000 M⁻¹ s⁻¹.

B4: 107_A07 Fab (tagless, native, i.e. not hinged) (Fab, V domains shown)
VH: B2 VH with Y105W, D108M, V109W
VL: B3 VL
Q: Does B4 bind [7]?
A: Result: no binding (tested: 6 µM Fab with 4 µM MET567)

Q: And the Kd [9]?
A: The Kd was 4.2 nM.

Q: What about the koff [9] of the same molecule?
A: The koff was 0.0075 s⁻¹.

Q: And the kon [9]?
A: The kon was 1.8e+06 M⁻¹ s⁻¹.

B5: 110_A01 Fab (His/tri-FLAG tagged, hinged) (Fab, V domains shown)
VH: B2 VH with Y105W, G106F, M107P, D108Y, V109L
VL: B2 VL
notes: Fab from pBIOCAM7-3F, hinged, hexahistidine and tri-FLAG tags on the heavy chain
Q: With B5 as the molecule, how does the Kd [5] read?
A: Its Kd is 1.23 nM.

Q: What about the koff [5] of the same molecule?
A: Its koff is 0.00137 s⁻¹.

Q: And the kon [5]?
A: The kon was 1.12e+06 M⁻¹ s⁻¹.

Q: And the “IC50, inhibition … Assay 1” value [6]?
A: Its value is 9.6 nM.

Q: What about the “IC50, inhibition … Assay 2” value [6] of the same molecule?
A: The value was 27 nM.

Q: What about the “IC50, inhibition … Assay 3” value [6] of the same molecule?
A: Its value is 2.6 nM.

Q: What about the “Mean IC50, inhibition” value [6] of the same molecule?
A: Its value is 13.1 nM.

B6: 107_A07 Fab (His/tri-FLAG tagged, hinged) (Fab, V domains shown)
VH: B2 VH with Y105W, D108M, V109W
VL: B2 VL
notes: Fab from pBIOCAM7-3F in HEK293 cells, hinged format (Leu-Glu after VH), hexahistidine and tri-FLAG tags on the heavy chain
Q: B6 was tested. Which Kd [5] did it give?
A: The Kd was 1.23 nM.

Q: What about the koff [5] of the same molecule?
A: Its koff is 0.00116 s⁻¹.

Q: And the kon [5]?
A: Its kon is 949000 M⁻¹ s⁻¹.

Q: What about the “IC50, inhibition … Assay 1” value [6] of the same molecule?
A: Its value is 9.7 nM.

Q: What about the “IC50, inhibition … Assay 2” value [6] of the same molecule?
A: Its value is 9.2 nM.

Q: And the “IC50, inhibition … Assay 3” value [6]?
A: The value was 3.1 nM.

Q: What about the “Mean IC50, inhibition” value [6] of the same molecule?
A: The value was 7.4 nM.

B7: 107_A01 Fab (His/tri-FLAG tagged, hinged) (Fab, V domains shown)
VH: B2 VH with Y105W, D108V, V109S
VL: B2 VL
notes: as for B5
Q: For B7, which Kd [5] is on record?
A: The Kd was 1.43 nM.

Q: What about the koff [5] of the same molecule?
A: The koff was 0.00123 s⁻¹.

Q: And the kon [5]?
A: Its kon is 863000 M⁻¹ s⁻¹.

Q: And the “IC50, inhibition … Assay 1” value [6]?
A: Its value is 9.7 nM.

Q: What about the “IC50, inhibition … Assay 3” value [6] of the same molecule?
A: Its value is 11.4 nM.

Q: And the “Mean IC50, inhibition” value [6]?
A: The value was 10.6 nM.

B8: 107_A08 Fab (His/tri-FLAG tagged, hinged) (Fab, V domains shown)
VH: B2 VH with Y105W, D108V, V109E
VL: B2 VL
notes: as for B5
Q: What does the source list for B8?
A: Kd [5]: 2.29 nM; koff [5]: 0.00192 s⁻¹; kon [5]: 838000 M⁻¹ s⁻¹; IC50, inhibition of HGF/SF-induced migration of SKOV-3 cells, Assay 1 [6]: 10.5 nM; Mean IC50, inhibition of HGF/SF-induced migration of SKOV-3 cells [6]: 10.5 nM

B9: 7A2 scFv (expressed in E. coli, 6xHis/tri-Flag tags) (scFv)
scFv: QMQLVQSGAEVKKPGAPVKVSCKVSGYTFTDYYMHWVQQAPGKGLEWMGLVDPEDGETIYAEKFQGRVTITADTSTDTAYMELSSLRSEDTAVYYCATDATTPYYGMDVWGQGTLVTVSSLEGGGGSGGGGSGGGASDIQMTQSPSSLSASVGDRVTITCQASQDISNYLNWYQQKPGRAPKVLIYDASNLETGVPSRFSGSGSGTEFTLTISNLRPDDFATYYCQQGDSFPLTFGGGTKVEIK
notes: also called 084-G02; antibody 7A2; not shown: 6xHis/tri-FLAG tags of pSANG10-3F
Q: Which results are given for B9?
A: Kd [10]: 12.3 nM; koff [10]: 0.646 s⁻¹; kon [10]: 5.25e+07 M⁻¹ s⁻¹; IC50 (nM), inhibition of HGF/SF-induced migration of SKOV-3 cells, Assay 1 [11]: 2.1 nM; IC50 (nM), inhibition of HGF/SF-induced migration of SKOV-3 cells, Assay 2 [11]: 2.5 nM; IC50 (nM), inhibition of HGF/SF-induced migration of SKOV-3 cells, Mean [11]: 2.3 nM

B10: monomeric 7A2 scFv (8xHis-tagged, expressed in P. pastoris) (scFv)
scFv: EAEAQMQLVQSGAEVKKPGAPVKVSCKVSGYTFTDYYMHWVQQAPGKGLEWMGLVDPEDGETIYAEKFQGRVTITADTSTDTAYMELSSLRSEDTAVYYCATDATTPYYGMDVWGQGTLVTVSSLEGGGGSGGGGSGGGASDIQMTQSPSSLSASVGDRVTITCQASQDISNYLNWYQQKPGRAPKVLIYDASNLETGVPSRFSGSGSGTEFTLTISNLRPDDFATYYCQQGDSFPLTFGGGTKVEIKRPRHHHHHHHH
notes: Monomer isolated by size exclusion chromatography
Q: B10 was tested. Which Kd [12] did it give?
A: Its Kd is 3.62 nM.

Q: And the koff [12]?
A: Its koff is 0.00212 s⁻¹.

Q: And the kon [12]?
A: The kon was 586000 M⁻¹ s⁻¹.
